{"source": "paper PMC3229571", "about": "“ZipA Binds to FtsZ with High Affinity and Enhances the Stability of FtsZ Protofilaments” (PLoS ONE, 2011)", "proteins": {"B1": {"name": "FtsZ (natural protein, E. coli, UniProt P0A9A6 1-383, looked up)", "chain": "MFEPMELTNDAVIKVIGVGGGGGNAVEHMVRERIEGVEFFAVNTDAQALRKTAVGQTIQIGSGITKGLGAGANPEVGRNAADEDRDALRAALEGADMVFIAAGMGGGTGTGAAPVVAEVAKDLGILTVAVVTKPFNFEGKKRMAFAEQGITELSKHVDSLITIPNDKLLKVLGRGISLLDAFGAANDVLKGAVQGIAELITRPGLMNVDFADVRTVMSEMGYAMMGSGVASGEDRAEEAAEMAISSPLLEDIDLSGARGVLVNITAGFDLRLDEFETVGNTIRAFASDNATVVIGTSLDPDMNDELRVTVVATGIGMDKRPEITLVTNKQVQQPVMDRYQQHGMAPLTQEQKPVAKVVNDNAPQTAKEPDYLDIPAFLRKQAD", "notes": "Cell division protein FtsZ, E. coli; no tag is named; also called recombinant E. coli FtsZ; source: E. coli BL21, purified (ammonium sulfate precipitation, desalting, polymerization and depolymerization step)"}}, "molecular_target": "the molecule itself", "experiment": "co-sedimentation; FtsZ 6 µM, 50 mM PIPES pH 6.0, 6.8 or 8.0, 1 mM MgCl2, 1 mM GTP, 10 min at 37°C; polymers sedimented at 88,760 x g, 30°C, 30 min; SDS-PAGE of pellets", "data": [{"protein": "B1", "values": [{"measurement": "binding result", "result": "binds"}]}]}
